Laboratory results from patent US20220289857A1.
pKd: −log10 of the molar value. Several values for one entry are separate records, joined by “and”; a condition that tells them apart may be missing. Equal values may be shown once.

Legend:
[1] = target: cynomolgus macaque Fn14-GST (cynomolgus macaque (Macaca fascicularis)); test: SPR Biacore T200; cyno Fn14-GST captured by anti-GST, Fab analyte; average of two runs
[2] = target: His-SUMO-huFn14 (soluble human Fn14 aa 28-75 with N-terminal 6xHis-SUMO tag) (human); test: SPR Biacore T200; His-SUMO-huFn14 amine-coupled, Fab analyte; 1:1 fit
Chain of His-SUMO-huFn14 (soluble human Fn14 aa 28-75 with N-terminal 6xHis-SUMO tag) (human) (chain, as listed by the source limits assumed): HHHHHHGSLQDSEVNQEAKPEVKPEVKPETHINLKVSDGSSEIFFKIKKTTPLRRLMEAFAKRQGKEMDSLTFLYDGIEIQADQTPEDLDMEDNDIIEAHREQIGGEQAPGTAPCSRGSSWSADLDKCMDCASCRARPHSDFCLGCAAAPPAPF

[3] = target: cynomolgus macaque Fn14-GST (cynomolgus macaque (Macaca fascicularis)); test: SPR Biacore T200; cyno Fn14-GST captured by anti-GST, Fab analyte; 1:1 fit
[4] = target: His-SUMO-huFn14 (soluble human Fn14 aa 28-75 with N-terminal 6xHis-SUMO tag) (human); test: SPR Biacore T200; His-SUMO-huFn14 amine-coupled, Fab analyte; average of two runs
[5] = target: human Fn14 (full length) on cells (human) (UniProt Q9NP84); test: cell-based or functional assay
Chain of human Fn14 (full length) on cells (human) (Q9NP84 28-129): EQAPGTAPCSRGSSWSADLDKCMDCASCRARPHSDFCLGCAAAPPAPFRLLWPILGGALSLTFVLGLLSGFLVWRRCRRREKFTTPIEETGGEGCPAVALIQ

Chain of cynomolgus macaque Fn14-GST (cynomolgus macaque (Macaca fascicularis)) (chain, as listed by the source): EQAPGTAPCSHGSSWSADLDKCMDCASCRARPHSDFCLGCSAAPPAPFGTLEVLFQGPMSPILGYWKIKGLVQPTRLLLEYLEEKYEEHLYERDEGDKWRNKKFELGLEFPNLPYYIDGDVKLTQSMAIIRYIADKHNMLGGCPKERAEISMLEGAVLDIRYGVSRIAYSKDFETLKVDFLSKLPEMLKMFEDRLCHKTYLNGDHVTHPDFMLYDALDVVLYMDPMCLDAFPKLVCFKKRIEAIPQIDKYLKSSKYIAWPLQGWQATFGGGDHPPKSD

pKd [1] | pKd [2] | koff [2] | kon [2] | pKd [3] | koff [3] | kon [3] | pKd [4] | ICAM-1 MFI on HRMC, 250 ng/mL rhTWEAK, mAb 0.1 µg/mL [5] [MFI] | Substance
8.89 | 8.74 and 8.84 | 0.00304 s⁻¹ and 0.00279 s⁻¹ | 1.68e+06 M⁻¹ s⁻¹ and 1.94e+06 M⁻¹ s⁻¹ | 8.86 and 8.92 | 0.00118 s⁻¹ and 0.00202 s⁻¹ | 1.31e+06 M⁻¹ s⁻¹ and 1.68e+06 M⁻¹ s⁻¹ | 8.79 | – | ITEM-4 Fab (enzymatic digest)
– | – | – | – | – | – | – | – | 34700 | mIgG2b isotype control antibody
– | – | – | – | – | – | – | – | 33300 | mIgG1 isotype control antibody
